Each block holds one binder with its values, some of them ahead of it. No end group written: not given here.
Key:
[1] = target: soluble human insulin receptor-immunoglobulin heavy chain chimera (sIR-Fc) (human), P06213; assay: fluorescence polarization competition with FITC-RP9 for sIR-Fc; details: remark: other sources report otherwise
[2] = target: Insulin receptor prepared according to Bass et al., 1996: soluble human insulin receptor-immunoglobulin heavy chain chimera (human) (UniProt P06213); assay: phage ELISA vs milk
[3] = target: Insulin receptor prepared according to Bass et al., 1996: soluble human insulin receptor-immunoglobulin heavy chain chimera (human) (UniProt P06213); assay: phage ELISA, vs IGF-1R
[4] = target: soluble human insulin mini-receptor (mIR) (human) (UniProt P06213); assay: FP competition vs FITC-RP9, mIR
Soluble IGF-1R [5] = target: Soluble IGF-1R (UniProt P08069); assay: phage ELISA; ratio over background for IGF-1R divided by that for IR
Soluble IGF-1R [6] = target: Soluble IGF-1R (UniProt P08069)
[7] = target: T1, Soluble IGF-1R (R&D Systems, Cat. # 391-GR/CF); recombinant human IGF-1R (human), P08069; assay: phage ELISA vs milk
[8] = target: T2, Insulin receptor prepared according to Bass et al., 1996: soluble human insulin receptor-immunoglobulin heavy chain chimera (human), P06213; assay: phage ELISA vs milk
[9] = target: T1, Soluble IGF-1R (R&D Systems, Cat. # …); assay: phage ELISA, vs IR
[10] = target: T2, Insulin receptor prepared according to …; assay: phage ELISA, vs IGF-1R

IC50 [1]: 52 nM
B1: C1 (peptide)
peptide: CWARPCGDAANFYDWFVQQAS

Ratio over Background [2]: 1.9 fold
IR/IGF-1R Comparison [3]: 0.3
B2: H2CA-4-E9-IGFR (peptide)
peptide: RGAVAGFHDQFYDWFDRQVSRVHKFG

IC50 [4]: 770 nM
B3: H2C (peptide)
peptide: FHENFYDWFVQRVSKK

IGF-1R/IR ratio comparison (Soluble IGF-1R [5]): 1.4
ratio over background, IGF-1R (ratio over background) (Soluble IGF-1R [6]): 2
B4: 26L-3-G5-IR (peptide)
peptide: AETSAQVGWQRLWSVWPGDHWSTLDPFYHKLSELLRESGA
modifications: not fully specified (residue 27, N-terminus, C-terminus); printed as AETSAQVGWQRLWSVWPGDHWSTLDP9YHKLSELLRESGA

Ratio over Background [2]: 2 fold
IR/IGF-1R Comparison [3]: 0.1
B5: A6L-0-H3-IR (peptide)
peptide: YRGMLVLGRISGGAGKAASERPARIGQKVSAVNFYDWFV

Ratio over Background [2]: 1 fold
IR/IGF-1R Comparison [3]: 0
B6: B6Hα-1-B5-IR (peptide)
peptide: CCTTEMVVMDARDDPFYHKLSELVTGG

Ratio over Background [7]: 10.6 fold
Ratio over Background [8]: 1.1 fold
IGF-1R/IR Comparison [9]: 9.4
IR/IGF-1R Comparison [10]: 0.1
B7: 20E2B-2-B11-IGFR (peptide)
peptide: VVTPVNFYRALEALVRGXRLG
modifications: not fully specified; printed as VVTPVNFYRALEALVRG.RLG; X: residue not identified in the source

— patent publication US20030236190A1
